Some results are limits rather than exact numbers.

First the molecules themselves.
T1: GRO-β (CXCL2) (UniProt P19875 35-107)
T1 construct: Bought chemokine
T1 sequence (looked up): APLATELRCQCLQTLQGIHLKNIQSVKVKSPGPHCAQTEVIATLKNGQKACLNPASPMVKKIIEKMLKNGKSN

T2: IL-8 (CXCL8) (UniProt P10145 28-99, limits assumed)
T2 construct: also called IL-8(72aa); IL-8(77aa)
T2 sequence (looked up): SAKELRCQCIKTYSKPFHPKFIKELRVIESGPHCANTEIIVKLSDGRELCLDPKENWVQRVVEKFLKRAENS

T3: Mig (CXCL9) (UniProt Q07325 23-125)
T3 construct: Bought chemokine
T3 sequence (looked up): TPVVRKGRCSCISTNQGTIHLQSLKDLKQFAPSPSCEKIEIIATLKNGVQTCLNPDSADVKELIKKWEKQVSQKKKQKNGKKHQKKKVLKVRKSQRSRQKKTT

T4: IP-10 (CXCL10) (UniProt P02778 22-98)
T4 construct: Bought chemokine
T4 sequence (looked up): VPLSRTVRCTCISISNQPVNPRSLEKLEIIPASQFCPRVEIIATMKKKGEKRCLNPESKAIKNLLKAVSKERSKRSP

T5: I-TAC (CXCL11) (UniProt O14625 22-94)
T5 construct: Bought chemokine; also called I-TACK
T5 sequence (looked up): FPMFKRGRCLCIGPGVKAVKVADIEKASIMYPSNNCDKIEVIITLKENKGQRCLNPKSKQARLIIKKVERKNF

T6: I-309 (CCL1) (UniProt P22362 23-96, limits assumed)
T6 construct: Bought chemokine
T6 sequence (looked up): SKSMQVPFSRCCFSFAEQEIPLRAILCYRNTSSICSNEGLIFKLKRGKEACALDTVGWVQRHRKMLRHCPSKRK

T7: MCP-2 (CCL8) (UniProt P80075 24-99)
T7 construct: Bought chemokine
T7 sequence (looked up): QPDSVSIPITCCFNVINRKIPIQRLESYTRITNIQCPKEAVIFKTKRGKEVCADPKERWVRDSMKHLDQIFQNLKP

T8: RANTES (CCL5) (UniProt P13501 24-91)
T8 construct: Bought chemokine
T8 sequence (looked up): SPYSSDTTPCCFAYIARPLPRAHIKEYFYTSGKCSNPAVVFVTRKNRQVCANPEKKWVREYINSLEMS

T9: Eotaxin 2 (CCL24) (UniProt O00175 27-104, limits assumed)
T9 construct: Bought chemokine
T9 sequence (looked up): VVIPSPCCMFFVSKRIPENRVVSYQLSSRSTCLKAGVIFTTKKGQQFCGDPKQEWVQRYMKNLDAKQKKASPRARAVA

T10: Eotaxin 3 (CCL26) (UniProt Q9Y258 24-94)
T10 construct: Bought chemokine
T10 sequence (looked up): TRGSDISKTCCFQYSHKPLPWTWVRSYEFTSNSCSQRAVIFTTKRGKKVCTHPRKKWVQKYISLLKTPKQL

T11: BCA-1 (CXCL13) (UniProt O43927 23-109)
T11 construct: Bought chemokine
T11 sequence (looked up): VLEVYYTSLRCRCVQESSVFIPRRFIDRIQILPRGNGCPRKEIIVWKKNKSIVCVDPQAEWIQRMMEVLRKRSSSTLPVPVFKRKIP

T12: Exodus-2 (CCL21) (UniProt O00585 24-134)
T12 construct: Bought chemokine
T12 sequence (looked up): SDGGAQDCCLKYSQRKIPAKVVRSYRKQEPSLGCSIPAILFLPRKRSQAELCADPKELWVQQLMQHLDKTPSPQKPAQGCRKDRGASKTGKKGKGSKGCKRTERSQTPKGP

T13: TECK (CCL25) (UniProt O15444 24-150)
T13 construct: Bought chemokine
T13 sequence (looked up): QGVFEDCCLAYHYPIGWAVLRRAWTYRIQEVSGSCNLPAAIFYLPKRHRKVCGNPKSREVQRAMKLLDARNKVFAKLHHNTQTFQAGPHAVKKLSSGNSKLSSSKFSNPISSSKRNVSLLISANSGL

T14: Lymphotactin (XCL-1) (UniProt P47992 23-114, limits assumed)
T14 construct: Bought chemokine
T14 sequence (looked up): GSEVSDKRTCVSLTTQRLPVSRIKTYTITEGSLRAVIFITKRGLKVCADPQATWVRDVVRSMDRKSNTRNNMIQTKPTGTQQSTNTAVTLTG

T16 sequence (Q99616 24-98 limits assumed): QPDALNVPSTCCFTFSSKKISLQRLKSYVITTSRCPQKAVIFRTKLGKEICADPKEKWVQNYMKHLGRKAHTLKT
T15 sequence (P13500 24-99 limits assumed): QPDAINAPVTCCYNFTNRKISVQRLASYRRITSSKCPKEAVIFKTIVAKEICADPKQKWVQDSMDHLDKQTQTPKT

One assay addresses T1, GRO-β (CXCL2). The assay is described as follows: micro-array, phage-presented peptide on printed CK. On the procedure:
(§1) (1) Printing: Chemokine (CK) solution (in water) was serially diluted with Print Reagent (GenTel BioSurfaces USA) to final concentrations of 50 μg and 25 μg/ml. BSA/BSA-Biotin control solutions (in water) were diluted with Print Reagent to 100 μg/ml. Amplified stock of M13 phage control (M13KEgIII Cloning Vector, New England Biolabs, Cat.No.E8101S) was stored in Tris Buffered Saline (TBS; pH7.5, 4° C.) and diluted with Print Reagent to the working titre (10^8 pfu/μl). An automated spotting robot (16 pin print tool, 0.4mm head; BioRobotics, UK) was used to print the CK/BSA control/M13 control, 5 repeats per sample (CK 25 μg/ml and 50 μg/ml; BSA 100 μg/ml; M13 20 μl), on PATH Protein Microarray Slides (GenTel, Prod.No.2-1005/-1025) at […], and 50-70% relative humidity. Printed micro-array slides were stored at Room Temperature (RT) or 4° C. for at least 24 h before use.
(§2) (2) Blocking: Block Buffer (500 μl/partition; PATHblock, GenTel, Prod.No.2-1014) was applied to the slide for 1 hour at room temp (RT). After removal of Block Buffer, the slide was air dried for 25 minutes;
(§3) (11) Analysis: Quantitative analysis of micro-array was performed by the SpotReader program of Niles Scientific (USA) and presented as Relative Fluorescence (RF) as a function of CK concentration. Micro-array readout (Cy3 fluorescence) was quantified to determine the relative binding affinities of a CBP for the CKs and by inference, the specificity of the CBP for binding to a CK.
For the molecule WVFGHGMCK [Phage-Presented Peptide 25 (Ph-p25)], the “Relative Fluorescence Units (RFU)” value was over 15000 RFU.
As for DYDY [Phage-Presented Peptide 32 (Ph-p32)], the “Relative Fluorescence Units (RFU)” value was over 10000 RFU.

For another assay, the target named is T2, IL-8 (CXCL8). The assay is described as follows: micro-array, phage-presented peptide on printed CK. On the procedure: as §1, §2, §3
Regarding WVFGVHFCK [Phage-Presented Peptide 8.77 (Ph-p8.77)], the “Relative Fluorescence Units (RFU)” value was over 15000 RFU.
Still for that read-out and setting: as for WVFGHGMCK [Phage-Presented Peptide 25 (Ph-p25)], the figure is over 15000 RFU; as for DYDY [Phage-Presented Peptide 32 (Ph-p32)], over 10000 RFU.

Another assay deals with T3, Mig (CXCL9). Kind of assay: micro-array, phage-presented peptide on printed CK. On the procedure:
as §1, §2, §3
With WVFGVHFCK [Phage-Presented Peptide 8.77 (Ph-p8.77)], the “Relative Fluorescence Units (RFU)” value is over 15000 RFU.
The same measure, in the same setting: as for WVFGHGMCK [Phage-Presented Peptide 25 (Ph-p25)], the figure is over 15000 RFU; as for DYDY [Phage-Presented Peptide 32 (Ph-p32)], over 10000 RFU.

The target in the next assay is T4, IP-10 (CXCL10). Kind of assay: micro-array, phage-presented peptide on printed CK. On the procedure: as §1, §2, §3
With WVFGHGMCK [Phage-Presented Peptide 25 (Ph-p25)], the “Relative Fluorescence Units (RFU)” value is over 15000 RFU.

The next assay has as its target T5, I-TAC (CXCL11). Kind of assay: micro-array, phage-presented peptide on printed CK. On the procedure:
as §1, §2, §3
For WVFGVHFCK [Phage-Presented Peptide 8.77 (Ph-p8.77)], the “Relative Fluorescence Units (RFU)” value is over 15000 RFU.
On the same count and under the same terms, to DYDY [Phage-Presented Peptide 32 (Ph-p32)] belongs over 10000 RFU.

For another assay, the target named is T6, I-309 (CCL1). The assay is described as follows: micro-array, phage-presented peptide on printed CK. On the procedure: as §1, §2, §3
On to WVFGVHFCK [Phage-Presented Peptide 8.77 (Ph-p8.77)], for which the “Relative Fluorescence Units (RFU)” value is over 15000 RFU.
Consider DYDY [Phage-Presented Peptide 32 (Ph-p32)], for which the “Relative Fluorescence Units (RFU)” value is over 10000 RFU.

The next assay has as its target T15, MCP-1 (CCL2) (UniProt P13500 24-99).
T15 construct: Bought chemokine
The assay is described as follows: micro-array, phage-presented peptide on printed CK. On the procedure: as §1, §2, §3
As for WVFGHGMCK [Phage-Presented Peptide 25 (Ph-p25)], the “Relative Fluorescence Units (RFU)” value was over 15000 RFU.

Another assay addresses T7, MCP-2 (CCL8). Kind of assay: micro-array, phage-presented peptide on printed CK. On the procedure:
as §1, §2, §3
WVFGVHFCK [Phage-Presented Peptide 8.77 (Ph-p8.77)]: the “Relative Fluorescence Units (RFU)” value was over 15000 RFU.
Same read-out and setting: to WVFGHGMCK [Phage-Presented Peptide 25 (Ph-p25)] belongs over 15000 RFU.
For the molecule DYDY [Phage-Presented Peptide 32 (Ph-p32)], the “Relative Fluorescence Units (RFU)” value is over 10000 RFU.

A further assay addresses T16, MCP-4 (CCL13) (UniProt Q99616 24-98).
T16 construct: Bought chemokine
Kind of assay: micro-array, phage-presented peptide on printed CK. On the procedure:
as §1, §2, §3
In the case of WVFGVHFCK [Phage-Presented Peptide 8.77 (Ph-p8.77)], the “Relative Fluorescence Units (RFU)” value was over 15000 RFU.
Still for that read-out and setting: to WVFGHGMCK [Phage-Presented Peptide 25 (Ph-p25)] belongs over 15000 RFU; to DYDY [Phage-Presented Peptide 32 (Ph-p32)], over 10000 RFU.

The next assay has as its target T8, RANTES (CCL5). The assay is described as follows: micro-array, phage-presented peptide on printed CK. On the procedure:
as §1, §2, §3
As to WVFGHGMCK [Phage-Presented Peptide 25 (Ph-p25)], the binding result is on record as “binds”.
Regarding DYDY [Phage-Presented Peptide 32 (Ph-p32)], the “Relative Fluorescence Units (RFU)” value is over 10000 RFU.

The target of the next assay is T17, Eotaxin (CCL11) (UniProt P51671 24-97).
T17 construct: Bought chemokine
T17 sequence (P51671 24-97 limits assumed): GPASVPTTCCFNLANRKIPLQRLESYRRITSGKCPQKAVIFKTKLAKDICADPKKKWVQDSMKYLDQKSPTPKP
Kind of assay: micro-array, phage-presented peptide on printed CK. On the procedure: as §1, §2, §3
With WVFGHGMCK [Phage-Presented Peptide 25 (Ph-p25)], the binding result is recorded as “binds”.
For the molecule DYDY [Phage-Presented Peptide 32 (Ph-p32)], the “Relative Fluorescence Units (RFU)” value was over 10000 RFU.

A further assay has as its target T9, Eotaxin 2 (CCL24). The assay is described as follows: micro-array, phage-presented peptide on printed CK. On the procedure: as §1, §2, §3
On to DYDY [Phage-Presented Peptide 32 (Ph-p32)], for which the “Relative Fluorescence Units (RFU)” value was over 10000 RFU.

In a further assay the target is T10, Eotaxin 3 (CCL26). The assay is described as follows: micro-array, phage-presented peptide on printed CK. On the procedure:
as §1, §2, §3
With WVFGVHFCK [Phage-Presented Peptide 8.77 (Ph-p8.77)], the “Relative Fluorescence Units (RFU)” value was over 15000 RFU.
Turning to WVFGHGMCK [Phage-Presented Peptide 25 (Ph-p25)], the binding result is “binds”.
For DYDY [Phage-Presented Peptide 32 (Ph-p32)], the “Relative Fluorescence Units (RFU)” value is over 10000 RFU.

In the next assay the target is T18, SDF-1α (CXCL12) (UniProt P48061-2 22-89).
T18 construct: Alpha isoform of CXCL12; also called SDFα
T18 sequence (P48061 22-89 limits assumed): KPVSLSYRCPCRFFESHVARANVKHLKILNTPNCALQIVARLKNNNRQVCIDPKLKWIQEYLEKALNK
Kind of assay: micro-array, phage-presented peptide on printed CK. On the procedure: as §1, §2, §3
Take DYDY [Phage-Presented Peptide 32 (Ph-p32)]: the binding result was “binds”.

For the next assay, the target named is T19, SDF-1β (CXCL12) (UniProt P48061 22-93).
T19 construct: Beta isoform of CXCL12; also called SDFβ
T19 sequence (P48061 22-93 limits assumed): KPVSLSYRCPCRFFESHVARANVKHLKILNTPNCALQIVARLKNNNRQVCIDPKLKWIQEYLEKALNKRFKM
Kind of assay: micro-array, phage-presented peptide on printed CK. On the procedure: as §1, §2, §3
Consider WVFGVHFCK [Phage-Presented Peptide 8.77 (Ph-p8.77)], for which the binding result was “binds”.
The same measure, in the same setting: as for DYDY [Phage-Presented Peptide 32 (Ph-p32)], the entry is “binds”.

The target of another assay is T11, BCA-1 (CXCL13). Kind of assay: micro-array, phage-presented peptide on printed CK. On the procedure: as §1, §2, §3
In the case of WVFGVHFCK [Phage-Presented Peptide 8.77 (Ph-p8.77)], the binding result is on record as “binds”.
As to WVFGHGMCK [Phage-Presented Peptide 25 (Ph-p25)], the binding result was “binds”.
Same read-out and setting: as for DYDY [Phage-Presented Peptide 32 (Ph-p32)], the entry is “binds”.

For another assay, the target named is T12, Exodus-2 (CCL21). Kind of assay: micro-array, phage-presented peptide on printed CK. On the procedure: as §1, §2, §3
For WVFGHGMCK [Phage-Presented Peptide 25 (Ph-p25)], the binding result is reported as “binds”.
On the same count and under the same terms, to DYDY [Phage-Presented Peptide 32 (Ph-p32)] belongs “binds”.

For another assay, the target named is T13, TECK (CCL25). Kind of assay: micro-array, phage-presented peptide on printed CK. On the procedure: as §1, §2, §3
On to WVFGVHFCK [Phage-Presented Peptide 8.77 (Ph-p8.77)], for which the binding result was “binds”.
On the same count and under the same terms, as for WVFGHGMCK [Phage-Presented Peptide 25 (Ph-p25)], the entry is “binds”; as for DYDY [Phage-Presented Peptide 32 (Ph-p32)], “binds”.

The target of the next assay is T14, Lymphotactin (XCL-1). Kind of assay: micro-array, phage-presented peptide on printed CK. On the procedure: as §1, §2, §3
In the case of WVFGHGMCK [Phage-Presented Peptide 25 (Ph-p25)], the binding result is listed as “binds”.
As to DYDY [Phage-Presented Peptide 32 (Ph-p32)], the binding result is “binds”.

The record behind these values is US20100227824A1 (SYMTHERA CANADA, published 2010).
